Source: publication PMC4514642, “^99mTc-3P-RGD2 molecular imaging targeting integrin αvβ3 in head and neck squamous cancer xenograft” (Journal of Radioanalytical and Nuclear Chemistry, 2015)

Key:
[1] = In vitro stability in serum by radio-HPLC; type: in vitro ADME; conditions: fetal calf serum (result text); newborn calf serum / 2 mL human serum in method; 37 MBq, 37 °C, incubation 6 h (analysed at 0 min, 3, 4, 6 h); radio-HPLC radiochemical purity
Protocol: The stability of ^99mTc-3P-RGD2 in newborn calf serum was determined after incubating the radiolabeled compound (37 MBq) in 2 mL […] at 37 °C. Every 20 μL mixture was injected directly into the radio-HPLC to analyze the radiochemistry purity, which was followed by radiolabeling efficiency analysis at 0 min, 3, 4, and 6 h.
Fig. 2 Radio-HPLC analysis of ^99mTc-3P-RGD2 stability. ^99mTc-3P-RGD2 incubated in new-born calf serum for 0 min (a), 3 h (b), 4 h (c), 6 h (d) after labeling

HEP-2 tumor = test: Biodistribution in HEP-2 tumor bearing mice; type: in vivo, BALB/c nude mice; conditions: stated for HEP-2 and CNE-1 tumor models together
Protocol: (§1) Female BALB/c nude mice (4–5 weeks of age, 15–20 g of weight) were purchased from the Department of Animal Experiment, Chinese Academy of Medical Sciences. The mice were subcutaneously implanted with 3 × 10^6 the HEP-2 cells (6 mice) or 2 × 10^5 the CNE-1 cells (6 mice) in 0.1 mL of saline into the right upper shoulder flanks. All procedures were performed in a laminar flow cabinet using the aseptic technique. Fifteen to nineteen days after inoculation, the tumor size was 1–1.5 cm, the tumor-bearing mice were used for biodistribution and imaging studies. Capital Medical University Animal Care and Use Committee approved the animal experiments.
(§2) The biodistribution of ^99mTc-3P-RGD2 in HEP-2 tumor bearing mice and CNE-1 tumor bearing mice was evaluated in groups of 3 mice per time point at 60 min and 120 min after injection of approximately 0.55–0.74 MBq of ^99mTc-3P-RGD2 in 0.1 mL saline via tail vein. From all mice, tumors and tissue samples (blood, heart, liver, spleen, kidney, lung, intestine and muscle) were harvested and weighed. Subsequently, radioactivity uptake was determined in γ-counter. Activity concentrations in the tissues were calculated as percentage of the injected dose per gram of tissue (%ID/g). To correct for radioactive decay, injection standards were counted simultaneously.

[2] = Biodistribution in HEP-2 tumor bearing mice; type: in vivo, BALB/c nude mice; conditions: female, BALB/c nude, mouse, iv, total radioactivity, HEP-2 model, mean ± SD
Protocol: as §1, §2

[3] = Biodistribution in CNE-1 tumor bearing mice; type: in vivo; conditions: female, BALB/c nude, mouse, iv, total radioactivity, CNE-1 model, mean ± SD
Protocol: as §1, §2

For `N=C(N)NCCC[C@@H]1NC(=O)[C@H](CCCCNC(=O)CCOCCOCCOCCOCCNC(=O)CC[C@H](NC(=O)CCOCCOCCOCCOCCNC(=O)c2ccc(NN)nc2)C(=O)NCCOCCOCCOCCOCCC(=O)NCCCC[C@@H]2NC(=O)[C@@H](Cc3ccccc3)NC(=O)[C@H](CC(=O)O)NC(=O)CNC(=O)[C@H](CCCNC(=N)N)NC2=O)NC(=O)[C@@H](Cc2ccccc2)NC(=O)[C@H](CC(=O)O)NC(=O)CNC1=O` [^99mTc-3P-RGD2, [^99mTc(HYNIC-3P-RGD2)(tricine)(TPPTS)], metal not drawn], the “stability in serum (radio-HPLC)” value [1] was “stable”, the “uptake in blood and muscle” value (HEP-2 tumor; 60 min p.i.) was “low” and the route of excretion (HEP-2 tumor) was “excreted predominantly via the renal route”. The kidney uptake (HEP-2 tumor; selected organs) was “highest in the selected organs”, the tissue to tissue ratio at 2 h ([2]; HEP-2 tumor / blood, 120 min p.i., read-out: tumor/blood ratio) was 6.37 ± 0.68 and the tissue to tissue ratio at 2 h ([2]; HEP-2 tumor / muscle, 120 min p.i., read-out: tumor/muscle ratio) was 4.44 ± 0.42. The tissue uptake at 1 h ([2]; HEP-2 tumor, 60 min p.i., tail vein 0.55–0.74 MBq, γ-counter, %ID/g, 3 mice per time point) was 6.25 ± 0.22 %ID/g, the tissue uptake at 2 h ([2]; HEP-2 tumor, 120 min p.i., tail vein 0.55–0.74 MBq, γ-counter, %ID/g, 3 mice per time point) was 4.56 ± 0.67 %ID/g and the tissue to tissue ratio at 2 h ([3]; CNE-1 tumor / blood, 120 min p.i., read-out: tumor/blood ratio) was 2.49 ± 0.09. The tissue to tissue ratio at 2 h ([3]; CNE-1 tumor / muscle, 120 min p.i., read-out: tumor/muscle ratio) was 1.86 ± 0.07, the tissue uptake at 1 h ([3]; CNE-1 tumor, 60 min p.i., tail vein 0.55–0.74 MBq, γ-counter, %ID/g, 3 mice per time point) was 2.74 ± 0.51 %ID/g and the tissue uptake at 2 h ([3]; CNE-1 tumor, 120 min p.i., tail vein 0.55–0.74 MBq, γ-counter, %ID/g, 3 mice per time point) was 1.69 ± 0.18 %ID/g.
